Measurements published in patent US5866680.
Where two headings read alike, the source gives them in different places.

What was measured:
[1] = biological target: A/B".1A pentamer mutant 1-142 L44V,V45A,S46L,R47K,S48T (Homo sapiens) (UniProt P09012); test: EMSA
[2] = biological target: U1 snRNP-A 1-142 (Homo sapiens) (UniProt P09012); test: EMSA
[3] = biological target: U2 snRNP-B" 1-109 (Homo sapiens) (UniProt P08579); test: EMSA
[4] = test system: U2 snRNP-B" + U2 snRNP-A' (Homo sapiens); test: pulldown; conditions: A' stimulates B" binding to U2 about 100-fold
[5] = legend says full-length U2, text says U2 stem-loop IV

Sequence of UniProt P08579 (P08579 1-109): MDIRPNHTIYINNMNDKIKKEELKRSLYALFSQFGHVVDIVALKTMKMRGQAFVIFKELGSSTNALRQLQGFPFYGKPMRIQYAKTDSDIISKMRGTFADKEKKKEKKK

| Substance | Kd [1] | Kd ([2]; earlier estimate 80 nM quoted, 10 mM MgCl2, 150 mM NaCl) | Kd [3] | binding signal [4] | Kd [1, 5] | Kd [2, 5] | Kd [3, 5] |
| --- | --- | --- | --- | --- | --- | --- | --- |
| U1SL2 (U1 stem-loop II) | 70 nM | 30 nM | 800 nM | – | – | – | – |
| human U2 RNA | – | – | – | 100 fold | 900 nM | > 10000 nM | 400 nM |
